# Test results as given in the Human Domainome abundance scans (Beltran et al. 2025).
# ± gives the uncertainty stated by the source.
# B1: Cullin-9, residues 2234 to 2275; numbered along this chain, Q8IWT3 (parent)
# chain: KRCPSCQAPIEKNEGCLHMTCAKCNHGFCWRCLKSWKPNHKD
# Variants of: B1
# Assay: abundance fitness (aPCA) (normalised: wild type 0, dead -1); higher = more abundant; growth selection in yeast, the domain comes from the species named
# Settings: Homo sapiens
row,Variant,abundance fitness
1,KRCPSCQAPIEKNEGCLHMTCAKCNHGFFWRCLKSWKPNHKD [C29F],-1.53 ± 0.46
2,KRCPSCQAPIEKNEGCLHMTCAKCNHGFAWRCLKSWKPNHKD [C29A],-0.76 ± 0.11
3,KRCPSCQAPIEKNEGCLHMTCAKCNHGFGWRCLKSWKPNHKD [C29G],-0.737 ± 0.093
4,KRCPSCQAPIEKNEGCLHMTCAKCNHGFHWRCLKSWKPNHKD [C29H],-0.532 ± 0.16
5,KRCPSCQAPIEKNEGCLHMTCAKCNHGFKWRCLKSWKPNHKD [C29K],-0.632 ± 0.17
6,KRCPSCQAPIEKNEGCLHMTCAKCNHGFEWRCLKSWKPNHKD [C29E],-0.432 ± 0.11
7,KRCPSCQAPIEKNEGCLHMTCAKCVHGFCWRCLKSWKPNHKD [N25V],-0.265 ± 0.088
8,KRCPSCQAPIEKNEGCLHMTCAKCTHGFCWRCLKSWKPNHKD [N25T],-0.106 ± 0.11
9,KRCPSCQAPIEKNEGCLHMTCAKCSHGFCWRCLKSWKPNHKD [N25S],0.03 ± 0.1
10,KRCPSCQAPIEKNEGCLHMTCAKCWHGFCWRCLKSWKPNHKD [N25W],-0.44 ± 0.12
11,KRCPSCQAPIEKNEGCLHMTCAKCNHGLCWRCLKSWKPNHKD [F28L],-0.233 ± 0.1
12,KRCPSCQAPIEKNEGCLHMTCAKCNHGMCWRCLKSWKPNHKD [F28M],-0.39 ± 0.14
13,KRCPSCQAPIEKNEGCLHMTCAKCNHGCCWRCLKSWKPNHKD [F28C],-0.189 ± 0.14
14,KRCPSCQAPIEKNEGCLHMTCAKCNHGHCWRCLKSWKPNHKD [F28H],0.322 ± 0.16
15,KRCPSCQAPIEKNEGCLHMTCAKCNHGWCWRCLKSWKPNHKD [F28W],-0.255 ± 0.091
16,KRCPSCQAPIEKNEGCLHMTCAKCNHGNCWRCLKSWKPNHKD [F28N],0.135 ± 0.18
17,KRCPSCQAPIEKNEGCLHMTCAKCNHGDCWRCLKSWKPNHKD [F28D],0.101 ± 0.17
18,KRCPSCQAPIEKNEGCLHMTCAKCNHGPCWRCLKSWKPNHKD [F28P],0.048 ± 0.12
19,KRCPSCQAPIEKNEGCLHMTCAKCNHGVCWRCLKSWKPNHKD [F28V],-0.236 ± 0.096
20,KRCPSCQAPIEKNEGCLHMTCAKCNHGKCWRCLKSWKPNHKD [F28K],-0.288 ± 0.11

row,Variant,abundance fitness
1,KRCPSCQAPIEKNEGCLHMTCAKCNHGQCWRCLKSWKPNHKD [F28Q],0.084 ± 0.11
2,KRCPSCQAPIEKNEGCLHMTCAKCNHGECWRCLKSWKPNHKD [F28E],-0.074 ± 0.089
3,KRCPSCQAPIEKNEGCLHMTCAKCNHGYCWRCLKSWKPNHKD [F28Y],-0.049 ± 0.21
4,KRCPSCQAPIEKNEGCLHMTCAKCNHGACWRCLKSWKPNHKD [F28A],-0.173 ± 0.084
5,KRCPSCQAPIEKNEGCLHMTCAKCNHGTCWRCLKSWKPNHKD [F28T],-0.219 ± 0.1
6,KRCPSCQAPIEKNEGCLHMTCAKCNNGFCWRCLKSWKPNHKD [H26N],-0.287 ± 0.16
7,KRCPSCQAPIEKNEGCLHMTCAKCNDGFCWRCLKSWKPNHKD [H26D],0.063 ± 0.11
8,KRCPSCQAPIEKNEGCLHMTCAKCNWGFCWRCLKSWKPNHKD [H26W],-0.541 ± 0.14
9,KRCPSCQAPIEKNEGCLHMTCAKCNSGFCWRCLKSWKPNHKD [H26S],0.055 ± 0.12
10,KRCPSCQAPIEKNEGCLHMTCAKCNRGFCWRCLKSWKPNHKD [H26R],-0.213 ± 0.078
11,KRCPSCQAPIEKNEGCLHMTCAKCNEGFCWRCLKSWKPNHKD [H26E],-0.091 ± 0.093
12,KRCPSCQAPIEKNEGCLHMTCAKCNTGFCWRCLKSWKPNHKD [H26T],-0.226 ± 0.16
13,KRCPSCQAPIEKNEGCLHMTCAKCNLGFCWRCLKSWKPNHKD [H26L],-0.419 ± 0.094
14,KRCPSCQAPIEKNEGCLHMTCAKCNPGFCWRCLKSWKPNHKD [H26P],-0.154 ± 0.098
15,KRCPSCQAPIEKNEGCLHMTCAKCNYGFCWRCLKSWKPNHKD [H26Y],-0.1 ± 0.12
16,KRCPSCQAPIEKNEGCLHMTCAKCNCGFCWRCLKSWKPNHKD [H26C],-0.628 ± 0.15
17,KRCPSCQAPIEKNEGCLHMTCAKCNVGFCWRCLKSWKPNHKD [H26V],-0.266 ± 0.081
18,KRCPSCQAPIEKNEGCLHMTCAKCNIGFCWRCLKSWKPNHKD [H26I],-0.367 ± 0.2
19,KRCPSCQAPIEKNEGCLHMTCAKCNGGFCWRCLKSWKPNHKD [H26G],-0.02 ± 0.075
20,KRCPSCQAPIEKNEGCLHMTCAKCNQGFCWRCLKSWKPNHKD [H26Q],-0.17 ± 0.11

row,Variant,abundance fitness
1,KRCPSCQAPIEKNEGCLHMTCAKCNMGFCWRCLKSWKPNHKD [H26M],-0.109 ± 0.12
2,KRCPSCQAPIEKNEGCLHMTCAKCNKGFCWRCLKSWKPNHKD [H26K],-0.314 ± 0.16
3,KRCPSCQAPIEKNEGCLHMTCAKCNFGFCWRCLKSWKPNHKD [H26F],0.146 ± 0.2
4,KRCPSCQAPIEKNEGCLHMTCAKCNAGFCWRCLKSWKPNHKD [H26A],-0.022 ± 0.089
5,KRCPSCQAPIEKNEGCLHMTCAKCNHYFCWRCLKSWKPNHKD [G27Y],-0.425 ± 0.3
6,KRCPSCQAPIEKNEGCLHMTCAKCNHIFCWRCLKSWKPNHKD [G27I],-0.083 ± 0.26
7,KRCPSCQAPIEKNEGCLHMTCAKCNHKFCWRCLKSWKPNHKD [G27K],0.075 ± 0.14
8,KRCPSCQAPIEKNEGCLHMTCAKCNHMFCWRCLKSWKPNHKD [G27M],-0.264 ± 0.18
9,KRCPSCQAPIEKNEGCLHMTCAKCNHSFCWRCLKSWKPNHKD [G27S],0.256 ± 0.097
10,KRCPSCQAPIEKNEGCLHMTCAKCNHAFCWRCLKSWKPNHKD [G27A],0.194 ± 0.077
11,KRCPSCQAPIEKNEGCLHMTCAKCNHWFCWRCLKSWKPNHKD [G27W],-0.005 ± 0.11
12,KRCPSCQAPIEKNEGCLHMTCAKCNHCFCWRCLKSWKPNHKD [G27C],0.036 ± 0.12
13,KRCPSCQAPIEKNEGCLHMTCAKCNHRFCWRCLKSWKPNHKD [G27R],0.159 ± 0.074
14,KRCPSCQAPIEKNEGCLHMTCAKCNHLFCWRCLKSWKPNHKD [G27L],-0.457 ± 0.099
15,KRCPSCQAPIEKNEGCLHMTCAKCNHEFCWRCLKSWKPNHKD [G27E],0.708 ± 0.091
16,KRCPSCQAPIEKNEGCLHMTCAKCNHQFCWRCLKSWKPNHKD [G27Q],0.439 ± 0.13
17,KRCPSCQAPIEKNEGCLHMTCAKCNHTFCWRCLKSWKPNHKD [G27T],0.326 ± 0.11
18,KRCPSCQAPIEKNEGCLHMTCAKCNHDFCWRCLKSWKPNHKD [G27D],0.193 ± 0.14
19,KRCPSCQAPIEKNEGCLHMTCAKCNHHFCWRCLKSWKPNHKD [G27H],0.379 ± 0.14
20,KRCPSCQAPIEKNEGCLHMTCAKCNHPFCWRCLKSWKPNHKD [G27P],-0.129 ± 0.15
